{"source": "patent US7026443", "key": {"HLA-A*0101 (human) [1]": {"target": "HLA-A*0101 (human)"}, "HLA-A*0101 (human) [2]": {"target": "HLA-A*0101 (human)", "remark": "listed apart in the source"}, "HLA-A*0301 (human) [3]": {"target": "HLA-A*0301 (human)"}, "HLA-A*1101 (human) [4]": {"target": "HLA-A*1101 (human)"}, "HLA-A*0301 (human) [5]": {"target": "HLA-A*0301 (human)", "assay": "competition with 125I-labelled standard probe peptide for purified HLA-A*0301, gel filtration"}, "HLA-A*0301 (human) [6]": {"target": "HLA-A*0301 (human)", "assay": "competition with 125I-labelled standard peptide for purified HLA-A*0301, gel filtration"}, "HLA-A*1101 (human) [7]": {"target": "HLA-A*1101 (human)", "assay": "inhibition of 125I-labeled standard peptide binding to purified HLA-A*1101, gel filtration"}, "HLA-A*0301 (human) [8]": {"target": "HLA-A*0301 (human)", "assay": "competition with a 125I-labelled standard peptide for purified HLA-A*0301, bound and free separated by gel filtration"}, "HLA-A*1101 (human) [9]": {"target": "HLA-A*1101 (human)", "assay": "competition with 125I-radiolabeled standard probe peptide for purified HLA-A*1101, gel filtration"}, "HLA-A*0301 (human) [10]": {"target": "HLA-A*0301 (human)", "assay": "competition against a 125I-labeled standard probe peptide for purified HLA-A*0301, gel filtration; relative binding"}, "HLA-A*0301 (human) [11]": {"target": "HLA-A*0301 (human)", "assay": "competition with a 125I-labelled standard peptide for purified HLA-A*0301, gel filtration; value relative to the standard peptide"}}, "note": "Read-outs that look alike come from different tables or passages of the source.", "data": [{"binder": "KISEYRHYCY (modifications not checked)", "note": "[HPV16 E6 79 …]", "values": [{"measurement": "binding affinity ratio (IC50 of standard peptide / IC50 of test peptide)", "setting": "HLA-A*0101 (human) [1]", "value": 0.009}]}, {"binder": "QPFILYAHI (modifications not checked)", "note": "[HPV18 E1 263 peptide …]", "values": [{"measurement": "binding affinity ratio (IC50 of standard peptide / IC50 of test peptide)", "setting": "HLA-B*0702 (human)", "value": 0.0002}, {"measurement": "binding affinity ratio (IC50 of standard peptide / IC50 of test peptide)", "setting": "HLA-B*3501 (human)", "value": 0.0003}, {"measurement": "binding affinity ratio (IC50 of standard peptide / IC50 of test peptide)", "setting": "HLA-B*5101 (human)", "value": 0.21}, {"measurement": "binding affinity ratio (IC50 of standard peptide / IC50 of test peptide)", "setting": "HLA-B*5301 (human)", "value": 0.0017}, {"measurement": "binding affinity ratio (IC50 of standard peptide / IC50 of test peptide)", "setting": "HLA-B*5401 (human)", "value": 0.0034}]}, {"binder": "WPYLESRITV (modifications not checked)", "note": "[HPV18 E1 583 peptide …]", "values": [{"measurement": "binding affinity ratio (IC50 of standard peptide / IC50 of test peptide)", "setting": "HLA-B*0702 (human)", "value": 0.0067}, {"measurement": "binding affinity ratio (IC50 of standard peptide / IC50 of test peptide)", "setting": "HLA-B*3501 (human)", "value": 0.0066}, {"measurement": "binding affinity ratio (IC50 of standard peptide / IC50 of test peptide)", "setting": "HLA-B*5101 (human)", "value": 0.055}, {"measurement": "binding affinity ratio (IC50 of standard peptide / IC50 of test peptide)", "setting": "HLA-B*5301 (human)", "value": 0.014}, {"measurement": "binding affinity ratio (IC50 of standard peptide / IC50 of test peptide)", "setting": "HLA-B*5401 (human)", "value": 0.024}]}, {"binder": "DCATMCRHY (modifications not checked)", "note": "[HPV16 E1 peptide … (position 404, 9 amino acids)]", "values": [{"measurement": "relative binding ratio (IC50 of standard peptide / IC50 of test peptide) (ratio to standard peptide)", "setting": "HLA-A*0101 (human) [2]", "value": 0.0011}, {"measurement": "relative binding ratio (IC50 of standard peptide / IC50 of test peptide) (ratio to standard peptide)", "setting": "HLA-A*0301 (human) [3]", "value": 0.0001}]}, {"binder": "IHDIILECVY (modifications not checked)", "note": "[… (HPV16 E6, position 30, 10 amino acids)]", "values": [{"measurement": "relative binding ratio (IC50 of standard peptide / IC50 of test peptide)", "setting": "HLA-A*0101 (human) [2]", "value": 0.028}]}, {"binder": "KISEYRHYCY (modifications not checked)", "note": "[… (HPV16 E6, position 79, 10 amino acids)]", "values": [{"measurement": "relative binding ratio (IC50 of standard peptide / IC50 of test peptide)", "setting": "HLA-A*0101 (human) [2]", "value": 0.009}, {"measurement": "binding affinity ratio (IC50 of standard peptide / IC50 of test peptide) (ratio to standard peptide)", "setting": "HLA-A*1101 (human) [4]", "value": 0.0038}]}, {"binder": "EGTGCNGWF (modifications not checked)", "note": "[HPV16 E1 peptide … (position 11, 9 amino acids)]", "values": [{"measurement": "binding affinity ratio relative to the standard peptide (IC50 standard / IC50 test)", "setting": "HLA-A*0301 (human) [5]", "value": 0.0008}]}, {"binder": "EGTGCNGWFY (modifications not checked)", "note": "[HPV16 E1 peptide … (position 11, 10 amino acids)]", "values": [{"measurement": "binding affinity ratio relative to the standard peptide (IC50 standard / IC50 test)", "setting": "HLA-A*0301 (human) [5]", "value": 0.0005}]}, {"binder": "GDTPEWIQR (modifications not checked)", "note": "[HPV16 E1 334 …]", "values": [{"measurement": "binding affinity ratio (IC50 of standard peptide / IC50 of test peptide) (ratio to standard peptide)", "setting": "HLA-A*0301 (human) [6]", "value": 0.0008}, {"measurement": "relative binding ratio (IC50 of standard peptide / IC50 of test peptide)", "setting": "HLA-A*1101 (human) [7]", "value": 0.0002}]}, {"binder": "GMVVLLLVR (modifications not checked)", "note": "[HPV16 E1 272 …]", "values": [{"measurement": "binding affinity ratio (IC50 of standard peptide / IC50 of test peptide) (ratio to standard peptide)", "setting": "HLA-A*0301 (human) [6]", "value": 0.0036}, {"measurement": "relative binding ratio (IC50 of standard peptide / IC50 of test peptide)", "setting": "HLA-A*1101 (human) [7]", "value": 0.0082}]}, {"binder": "KAAMLAKFK (modifications not checked)", "note": "[HPV16 E1 204 …]", "values": [{"measurement": "binding affinity ratio (IC50 of standard peptide / IC50 of test peptide) (ratio to standard peptide)", "setting": "HLA-A*0301 (human) [6]", "value": 0.11}, {"measurement": "relative binding ratio (IC50 of standard peptide / IC50 of test peptide)", "setting": "HLA-A*1101 (human) [7]", "value": 0.18}]}, {"binder": "EGTGCNGWF (modifications not checked)", "note": "[HPV18 E1 peptide … (position 10, 9 amino acids)]", "values": [{"measurement": "relative binding ratio (IC50 of standard peptide / IC50 of test peptide) (ratio to standard peptide)", "setting": "HLA-A*0301 (human) [8]", "value": 0.0008}]}, {"binder": "EGTGCNGWFY (modifications not checked)", "note": "[HPV18 E1 peptide … (position 10, 10 amino acids)]", "values": [{"measurement": "relative binding ratio (IC50 of standard peptide / IC50 of test peptide) (ratio to standard peptide)", "setting": "HLA-A*0301 (human) [8]", "value": 0.0005}]}, {"binder": "WTYFDTYMR (modifications not checked)", "note": "[HPV18 E1 peptide … (position 536, 9 amino acids)]", "values": [{"measurement": "relative binding ratio (IC50 of standard peptide / IC50 of test peptide)", "setting": "HLA-A*1101 (human) [9]", "value": 0.012}, {"measurement": "binding affinity ratio (IC50 of the standard peptide / IC50 of the test peptide)", "setting": "HLA-A*0301 (human) [10]", "value": 0.0005}]}, {"binder": "EGTGCNGWF (modifications not checked)", "note": "[HPV45 E1 peptide … (position 10, 9 amino acids)]", "values": [{"measurement": "binding affinity ratio (IC50 of standard peptide / IC50 of test peptide) (ratio to standard peptide)", "setting": "HLA-A*0301 (human) [5]", "value": 0.0008}]}, {"binder": "GDTPEWIQR (modifications not checked)", "note": "[HPV45 E1 peptide … (position 327, 9 amino acids)]", "values": [{"measurement": "relative binding ratio (IC50 of standard peptide / IC50 of test peptide)", "setting": "HLA-A*0301 (human) [11]", "value": 0.0008}]}, {"binder": "GVLILALLR (modifications not checked)", "note": "[HPV45 E1 peptide … (position 265, 9 amino acids)]", "values": [{"measurement": "relative binding ratio (IC50 of standard peptide / IC50 of test peptide)", "setting": "HLA-A*0301 (human) [11]", "value": 0.0058}]}, {"binder": "LSFVCPWCA (modifications not checked)", "note": "[HPV45 E7 peptide … (position 95, 9 amino acids)]", "values": [{"measurement": "relative binding ratio (IC50 of the standard peptide / IC50 of the test peptide)", "setting": "HLA-A*0301 (human) [8]", "value": 0.0005}]}]}
